Data reported in paper PMC9537296, “A novel glucagon analog with an extended half-life, HM15136, normalizes glucose levels in rodent models of congenital hyperinsulinism” (Scientific Reports, 2022).

Legend:
[1] = biological target: FcRn (UniProt P55899); test: SPR; association with FcRn at pH 6.0, dissociation at pH 7.4
[2] = biological target: human glucagon receptor (human) (UniProt P47871)
[3] = biological target: FcγRIA (UniProt P12314); test: SPR; BIACORE T200, 25 °C; FcγRs immobilised by amine coupling on CM5 chips; test materials flowed over (HMC001 and I.V.-Globulin SN 31.25-500 nM, HM15136 30.38-486 nM); steady-state affinity fit
[4] = biological target: FcγRIIIB (UniProt O75015); test: as above
[5] = biological target: FcγRIIIA (UniProt P08637); test: as above
[6] = biological target: FcγRIIA (UniProt P12318); test: as above
Sequence of FcγRIIA (P12318 34-217): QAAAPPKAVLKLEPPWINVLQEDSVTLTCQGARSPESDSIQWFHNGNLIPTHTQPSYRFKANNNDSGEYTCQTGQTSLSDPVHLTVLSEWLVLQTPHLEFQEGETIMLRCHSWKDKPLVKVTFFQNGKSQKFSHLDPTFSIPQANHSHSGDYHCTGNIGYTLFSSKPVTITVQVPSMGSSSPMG

Sequence of FcγRIIIB (O75015 17-200): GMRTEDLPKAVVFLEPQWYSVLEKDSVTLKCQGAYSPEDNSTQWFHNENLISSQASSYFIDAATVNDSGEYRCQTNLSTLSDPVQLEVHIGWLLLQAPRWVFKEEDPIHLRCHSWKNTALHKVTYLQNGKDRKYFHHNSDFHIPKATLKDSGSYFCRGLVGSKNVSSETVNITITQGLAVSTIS
Sequence of FcγRIA (P12314 16-292): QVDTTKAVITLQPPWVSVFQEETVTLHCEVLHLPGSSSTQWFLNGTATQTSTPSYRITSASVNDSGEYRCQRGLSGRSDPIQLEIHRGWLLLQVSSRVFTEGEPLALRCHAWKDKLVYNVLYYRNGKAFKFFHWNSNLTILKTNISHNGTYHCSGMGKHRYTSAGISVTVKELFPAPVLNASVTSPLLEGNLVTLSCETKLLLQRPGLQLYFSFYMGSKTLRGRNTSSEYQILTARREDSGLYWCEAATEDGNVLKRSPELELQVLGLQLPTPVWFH
Sequence of FcRn (P55899 24-365, chain 1 of 2): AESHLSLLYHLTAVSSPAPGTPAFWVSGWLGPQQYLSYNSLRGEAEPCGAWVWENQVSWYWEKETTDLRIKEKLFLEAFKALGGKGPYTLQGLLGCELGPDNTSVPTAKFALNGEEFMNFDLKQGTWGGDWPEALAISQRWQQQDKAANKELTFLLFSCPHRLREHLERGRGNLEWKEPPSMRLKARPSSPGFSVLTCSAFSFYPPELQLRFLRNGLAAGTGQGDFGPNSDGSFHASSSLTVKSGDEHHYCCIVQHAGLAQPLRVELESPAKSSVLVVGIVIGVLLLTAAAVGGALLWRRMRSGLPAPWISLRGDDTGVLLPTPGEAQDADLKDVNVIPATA
Sequence of FcRn (P61769 21-119, chain 2 of 2, further chain): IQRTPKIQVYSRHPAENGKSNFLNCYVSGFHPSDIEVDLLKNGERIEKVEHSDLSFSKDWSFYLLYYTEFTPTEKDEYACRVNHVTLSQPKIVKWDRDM
Sequence of FcγRIIIA (P08637 17-208): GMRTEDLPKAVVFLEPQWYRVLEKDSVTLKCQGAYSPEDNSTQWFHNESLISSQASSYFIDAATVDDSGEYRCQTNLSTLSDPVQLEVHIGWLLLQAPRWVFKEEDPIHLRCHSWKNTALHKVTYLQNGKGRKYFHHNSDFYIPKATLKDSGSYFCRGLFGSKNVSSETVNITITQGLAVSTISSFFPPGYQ

| Substance | Ka [1] | EC50 of intracellular cAMP generation in hGCGR/CHO cells (0.0015 to 1555.2 nM HM15136) [2] | Kd [3] | Kd [4] | Kd [5] | Kd [6] |
| --- | --- | --- | --- | --- | --- | --- |
| HM15136 | 420000 | 0.024 nM |  |  |  |  |
| IgG1 (=I.V.-Globulin SN) (antibody) |  |  | 26.7 nM | 1590 nM | 209 nM | 184 nM |
